In the assay the target is CD44 receptors on SMMC-7721-SC2 hepatocellular carcinoma cells (human) (UniProt P16070). As to the kind of experiment: cell-based or functional assay.

The values below come from patent publication US20100322950A1.

Chain of CD44 receptors on SMMC-7721-SC2 hepatocellular carcinoma cells (human) (P16070 21-742): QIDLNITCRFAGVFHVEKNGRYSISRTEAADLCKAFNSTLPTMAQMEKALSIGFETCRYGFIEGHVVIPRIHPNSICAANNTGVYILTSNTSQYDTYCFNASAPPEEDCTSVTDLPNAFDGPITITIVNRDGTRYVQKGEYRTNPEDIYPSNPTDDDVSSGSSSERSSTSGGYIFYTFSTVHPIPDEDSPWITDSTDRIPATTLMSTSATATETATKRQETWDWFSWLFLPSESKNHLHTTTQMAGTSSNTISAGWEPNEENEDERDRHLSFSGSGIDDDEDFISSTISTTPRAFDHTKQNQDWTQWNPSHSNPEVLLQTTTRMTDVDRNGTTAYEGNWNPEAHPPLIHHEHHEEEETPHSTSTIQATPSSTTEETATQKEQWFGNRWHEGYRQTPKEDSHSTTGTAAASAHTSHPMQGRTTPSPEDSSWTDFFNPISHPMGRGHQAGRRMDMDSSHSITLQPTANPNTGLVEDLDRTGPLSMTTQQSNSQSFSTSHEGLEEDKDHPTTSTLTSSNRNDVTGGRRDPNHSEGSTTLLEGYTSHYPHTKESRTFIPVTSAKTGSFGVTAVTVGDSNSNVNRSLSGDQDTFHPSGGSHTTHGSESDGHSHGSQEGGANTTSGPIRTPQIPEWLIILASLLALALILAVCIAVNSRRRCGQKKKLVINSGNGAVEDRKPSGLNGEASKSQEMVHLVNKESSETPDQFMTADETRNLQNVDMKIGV

Regarding “OPN-5 kD expressed from the pDest-490 vector with C-terminal 1xFLAG tag (from UniProt P10451 167-210) (ligand)”, the cellular invasion of SMMC-7721-SC2 cells through Matrigel, 36 hours is greater than 2 fold.
